Data on 1 molecule can be found in patent publication US20070196350A1, “Compositions and Methods for Effecting Controlled Posterior Vitreous Detachment” (priority 2006, published 2007).

For this test, the system named is eyes from Dutch Belted Rabbits (vitreoretinal interface). Nature of the test: Ex vivo SEM scoring of residual vitreous (posterior vitreous detachment) after intravitreal injection in rabbit eyes. More on the design: key to Score of vitreo-retinal specimen, IN (Infra-Nasal Area) / Score of vitreo-retinal specimen, INL (Infra-Nasal Inferior Area) / Score of vitreo-retinal specimen, IC (Infra-Central Area) / Score of vitreo-retinal specimen, ICL (Infra-Central Lower Area) / Score of vitreo-retinal specimen, IT (Infra-Temporal Area) / Score of vitreo-retinal specimen, ITL (Infra-Temporal Lower Area): Grade 0 - extensive amount of residual vitreous; Grade 1 - moderate amount of residual vitreous; Grade 2 - mild amount of residual vitreous; Grade 3 - Inner retina visible through sparse collagen fibrils; Grade 4 - None to trace collagen fibrils covering inner retina. On the procedure:
The purpose of this ex vivo study was to compare the efficacy of 200 μg human-derived plasmin (Bausch & Lomb Incorporated's compound name “BOL-303209-X”) alone and in combination with triamcinolone acetonide (“TA,” a glucocorticoid anti-inflammatory medicament) on PVD in Dutch Belted Rabbits using scanning electron microscopy. This study was designed to use intravitreal injection of TA to enhance clinical observations for clear identification of PVD, to minimize possible inflammatory responses, and to assess whether improved efficacy could be achieved by the combined use of BOL-303209-X and TA.
Twelve (12) normal eyes from six (6) Dutch Belted Rabbits (both male and female) were used. All right eyes from 6 rabbits were injected with BOL-303209-X plus vehicle (Group 1, n=6 eyes) and all left eyes were injected with BOL-303209-X plus TA (Group 2, n=3, 2 mg TA/eye; Group 3, n=3, 4 mg TA/eye). BOL-303209-X was freshly prepared and kept on ice before use.
On the day of operation, rabbits were anesthetized, eyes disinfected and pupils dilated 15-20 minutes prior to injection. Each rabbit received two intravitreal injections. In Groups 1, 2, and 3, an initial 50-μl injection of BOL-303209-X at a dose of 200 μg per eye in a formulation of 5 mM epsilon-aminocaproic acid (“EACA”)/0.05% Tween 80/0.9% saline was given intravitreally in both the right and left eyes. In Group 1 (Control) a second 50-μl injection of formulation vehicle (0.05% Tween 80/0.05% hydroxypropyl methylcellulose (HPMC)/0.9% saline) was delivered in the right eyes 5 minutes after the first injection. In Groups 2 and 3, a formulation containing TA at a dose of either 2 mg (Group 2) or 4 mg (Group 3) was injected into the left eyes in the same way.
Eyes were examined with a slit-lamp biomicroscope assisted with a Volk Lens at 4 days prior to injection for baseline documentation. To evaluate the efficacy of BOL-303209-X, all eyes were directly observed under a surgical microscope for 5 minutes after injection for possible changes in the vitreo-retina. The injected eyes were followed up at 7 and 14 days after injection. Attention was paid particularly to the vitreoretinal interface for signs of PVD and to the retina for signs of toxicity during slit-lamp examination.
Fourteen days after injection the in-life phase of the study was terminated, the rabbits were euthanized by over dose of pentobarbital, their eyes enucleated and fixed in Karnovsky's solution for at least 24 hours. The fixed eyes were processed further for SEM. The posterior pole of each eye was examined. Micrographs at magnifications ranging from 100-2,500× of each specimen or up to 10,000× in some cases were examined to assess the extent of posterior vitreous detachment. The amount of residual vitreous was scored on a scale of 0-4 with a score of 4 representing complete removal of vitreous from the inner retina according to a standard protocol.
After enucleation, the eyes were trimmed of external muscle, fat, and connective tissue, and cut using a razor blade about 3 mm behind the limbus to facilitate penetration of fixative. The eyes were placed in ice-cold fixative consisting of 2% formaldehyde (from paraformaldehyde), 2.5% glutaraldehyde, in 0.1 phosphate buffer, with 0.1 M sucrose and 0.5 mM CaCl2 added, pH 7.2. Each eye was immersed in approximately 40 ml fixative. After one hour, the fixative was exchanged with fresh fixative and the eyes were transported to B&L and stored refrigerated in fixative.
Tissue specimen that included sclera, choroid, retina with the optic nerve (approximately 1 cm in diameter) were surgically removed from each eye. These were dehydrated though a graded ethanol series (30%, 50%, 70%, 85%, 95%, 100%) for thirty minutes per dilution. Dehydrated samples were dried to the critical point (Samdri-PVT-3B, Tousimis, Rockville, Md.) and mounted on aluminum SEM pucks with colloidal graphite (Ted Pella, Inc, Redding, Calif.). […]

Setting [1] is: Group 1: 200 μg BOL-303209-X per eye + vehicle, SEM day 14, scale 0-4, one value per eye.

Several values for one entry are separate records, joined by “and”; a condition that tells them apart may be missing. Identical values can stand only once.

B1: BOL-303209-X: human-derived plasmin (Bausch & Lomb Incorporated's compound name “BOL-303209-X”) (protein, UniProt P00747 20-580; P00747 581-810, looked up)
Plasmin heavy chain A: EPLDDYVNTQGASLFSVTKKQLGAGSIEECAAKCEEDEEFTCRAFQYHSKEQQCVIMAENRKSSIIIRMRDVVLFEKKVYLSECKTGNGKNYRGTMSKTKNGITCQKWSSTSPHRPRFSPATHPSEGLEENYCRNPDNDPQGPWCYTTDPEKRYDYCDILECEEECMHCSGENYDGKISKTMSGLECQAWDSQSPHAHGYIPSKFPNKNLKKNYCRNPDRELRPWCFTTDPNKRWELCDIPRCTTPPPSSGPTYQCLKGTGENYRGNVAVTVSGHTCQHWSAQTPHTHNRTPENFPCKNLDENYCRNPDGKRAPWCHTTNSQVRWEYCKIPSCDSSPVSTEQLAPTAPPELTPVVQDCYHGDGQSYRGTSSTTTTGKKCQSWSSMTPHRHQKTPENYPNAGLTMNYCRNPDADKGPWCFTTDPSVRWEYCNLKKCSGTEASVVAPPPVVLLPDVETPSEEDCMFGNGKGYRGKRATTVTGTPCQDWAAQEPHRHSIFTPETNPRAGLEKNYCRNPDGDVGGPWCYTTNPRKLYDYCDVPQCAAPSFDCGKPQVEPKKCPGR
Plasmin light chain B: VVGGCVAHPHSWPWQVSLRTRFGMHFCGGTLISPEWVLTAAHCLEKSPRPSSYKVILGAHQEVNLEPHVQEIEVSRLFLEPTRKDIALLKLSSPAVITDKVIPACLPSPNYVVADRTECFITGWGETQGTFGAGLLKEAQLPVIENKVCNRYEFLNGRVQSTELCAGHLAGGTDSCQGDSGGPLVCFEKDKYILQGVTSWGLGCARPNKPGVYVRVSRFVTWIEGVMRNN
modifications: plasmin plasma-derived
Consider B1, for which the “n ≧ 3, number of eyes of the group with mean score of 3 or higher” value (Group 1 (n=6 eyes): 200 μg BOL-303209-X per eye + vehicle) was determined as 2. In addition, the “Mean score of the group” value (Group 1 (n=6 eyes): 200 μg BOL-303209-X per eye + vehicle, SEM day 14, scale 0-4) was 2.6. Moreover, under setting [1], the “Mean score of 6 inferior fields, per eye” value was 3.2 and 2.8 and 2.5 and 1.7 and 3.0; the “Score of vitreo-retinal specimen, IC (Infra-Central Area)” value is 4 and 3; the “Score of vitreo-retinal specimen, ICL (Infra-Central Lower Area)” value was 3 and 2 and 1; the “Score of vitreo-retinal specimen, INL (Infra-Nasal Inferior Area)” value was 3 and 1. For the same molecule, under setting [1], the “Score of vitreo-retinal specimen, IT (Infra-Temporal Area)” value is 3 and 2; the “Score of vitreo-retinal specimen, ITL (Infra-Temporal Lower Area)” value was 3 and 2 and 1. For the same molecule, the “n ≧ 3 (eye with mean score of 3 or higher), per eye” value (Group 1: 200 μg BOL-303209-X per eye + vehicle, per-eye count) is 1. For the same molecule, the “Score of vitreo-retinal specimen, IN (Infra-Nasal Area)” value (Group 1: 200 μg BOL-303209-X per eye intravitreal + second injection of vehicle, SEM 14 days after injection, scale 0-4, one value per eye) was 3 and 2.
